Experimental findings from the supplement of paper PMC12042874 are described below.

± gives the uncertainty stated by the source.

This data set can be described thus: amyloid nucleation score (Sup35N fusion, yeast selection) (log enrichment); library NNK2; higher = more nucleation; inactive = no reads after selection. The gist of the method:
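Plasmid inserts were Illumina-sequenced at input and output from psi-negative yeast expressing Sup35N fused to peptides of 20 random codons. The yeast were induced with 100 μM copper sulfate for 24 hours and grown 7 days at 30°C on medium lacking adenine and uracil, and sequences with under 100 input reads were excluded. Nucleation score is the DiMSum log enrichment of output over input reads, centred on the mode score of non-aggregating sequences.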
The substance VDARALDMIVVRDQTFRCTM registered an amyloid nucleation score of 1.24 ± 0.33.

In the case of WNGQDGQGLVGLKRP, the amyloid nucleation score stood at 0.344 ± 0.23.

In turn, FEGLWQTFTMSLQGNLKYIF displayed an amyloid nucleation score of -0.4 ± 0.74.

As to VFLACNDCLCVWLSVEVTSE, the amyloid nucleation score entry is “inactive”.

As for LIIFTGYRCSLPFMSFF, the amyloid nucleation score is -0.945 ± 1.

For KINIKGFSSYAGRYHTRKIW, the amyloid nucleation score entry is “inactive”.

In turn, QGELYRSANLLFVAEVSSWR had an amyloid nucleation score of 0.561 ± 0.64.

Take IERPVRVHRYKT: the amyloid nucleation score entry was “inactive”.

YDYFTLSTTGLWLAIYMWWC: the amyloid nucleation score is 0.287 ± 0.56.

Substance NCLYICVCGLCMFQKLRC gave an amyloid nucleation score of -0.246 ± 0.76.

Substance NVQRI had an amyloid nucleation score of -0.399 ± 0.55.

RLFNTYYSRSFASYGYWLHC yielded an amyloid nucleation score of 0.47 ± 0.16.

In the case of RWITSAY, the amyloid nucleation score amounted to 0.709 ± 0.62.

Regarding SSTKIFHLL, the amyloid nucleation score result is “inactive”.

On to SPGYTMKGFRWWLLSILGAR, for which the amyloid nucleation score entry is “inactive”.

Consider SSFFPRQ, for which the amyloid nucleation score is -0.767 ± 0.76.

On to AVFTIFALVRS, for which the amyloid nucleation score was 1.08 ± 0.51.

For MDIFCYTGRPTSAKRAS, the amyloid nucleation score was -1.05 ± 0.64.

For the substance ISPIESSDRMGGCSLRAILP, the amyloid nucleation score is -0.66 ± 0.35.

SIIIVKFLIGWRILWRSLTY: the amyloid nucleation score entry was “inactive”.

The substance MIHYRWTHYNTRIGGYRYWE gave an amyloid nucleation score of 3.54 ± 0.05.

SYNRSKCNSTRLMLKSKTAH yielded an amyloid nucleation score of 1.51 ± 0.47.

For the substance QTPIGK, the amyloid nucleation score was -0.66 ± 1.1.

Substance VCSFVCNLCSLCEIEFWLIA showed an amyloid nucleation score of 0.521 ± 0.26.

With PAVFRHHPGKHVRHGSSTTT, the amyloid nucleation score is 0.73 ± 0.28.

DHNGVKSTSHKSSFFMSTGR: the amyloid nucleation score was determined as 0.056 ± 0.39.

On to VYYASDNWYLAYRWEGRRFN, for which the amyloid nucleation score is 0.821 ± 0.27.

Take VNVCTYTWLHVINERFTFQW: the amyloid nucleation score was 6.192 ± 0.045.

For the substance GVRRRRIRRWLNVSGRYMCE, the amyloid nucleation score came to 2.38 ± 0.23.

LVSMAIECHLLYLLE: the amyloid nucleation score turned out to be 0.931 ± 0.47.

Regarding SMLEDRYHSALTENRRDWKQ, the amyloid nucleation score came out at 0.564 ± 0.28.

On to MLVVLMFSLSDSI, for which the amyloid nucleation score is 1.67 ± 0.1.

With YTNSQYSPLPQQSNLKVSNI, the amyloid nucleation score is -0.716 ± 0.56.

Turning to LCIEMD, the amyloid nucleation score was found to be 0.566 ± 0.38.

Regarding SPFRTDHVF, the amyloid nucleation score was -0.311 ± 0.33.

In turn, AIWVYRPLVIQGTFGIRPA yielded an amyloid nucleation score of 6.15 ± 0.08.

TFNVPKMESVRPPG had an amyloid nucleation score of 0.796 ± 0.52.

In turn, PNTSKGGDGYSTWGTSQASS came in with an amyloid nucleation score of 0.03 ± 0.46.

Take GTYFNLYAGVLSVRQWPPHI: the amyloid nucleation score came out at 4.42 ± 0.061.

Substance TSSSYTSTFDRGLMNLRTCL registered an amyloid nucleation score of -0.039 ± 0.25.

As to VVKFYWCIVQCCTWNGMKSH, the amyloid nucleation score stood at 8.363 ± 0.067.

With SPVVADQPWCSI, the amyloid nucleation score was 0.321 ± 0.64.

Take AFVNVVGLVYSF: the amyloid nucleation score is -1.42 ± 0.45.

The substance NMKSWGSVV registered an amyloid nucleation score of -0.145 ± 0.79.

SVLLWWTHMYGLRMMKGVWG had an amyloid nucleation score of 0.433 ± 0.15.

For the substance RGYLTAT, the amyloid nucleation score is -0.134 ± 0.53.

Regarding LGTLGYTDAILWNYMSHCKG, the amyloid nucleation score result was “inactive”.

KRILQMDHRLLNHNSELLKR came in with an amyloid nucleation score of -0.397 ± 0.45.

For HAKTWM, the amyloid nucleation score was found to be 0.066 ± 1.

SFIRMWKDRLYHRLVALNRV came in with an amyloid nucleation score of 1 ± 0.48.

With EIVQFLLHMYGSVREAMVAL, the amyloid nucleation score is -1.05 ± 0.56.

As for TLAEFGQQPGRGACMYAVNN, the amyloid nucleation score result is “inactive”.

In turn, SYECCNKMQDINSMCGKLYW came in with an amyloid nucleation score of 0.274 ± 1.1.

The substance VTRLFGIREFRG gave an amyloid nucleation score of 3.65 ± 0.053.

As for AAFTRTSP, the amyloid nucleation score worked out at 0.858 ± 0.27.

DYSLSWVRYSFAYRGVSKDG: the amyloid nucleation score worked out at 0.061 ± 0.12.

ISGAL gave an amyloid nucleation score of 0.203 ± 0.45.

Consider ENKILMGAWEVFWTYSEHPW, for which the amyloid nucleation score result is “inactive”.

In the case of KADLRKHSLDIGSCADGIRI, the amyloid nucleation score was found to be 0.416 ± 0.8.

DDSFGVAVMKVWEMRGWSAL had an amyloid nucleation score of 1.16 ± 0.27.

As to IHDALTRCEWGSVSPRSSGC, the amyloid nucleation score stood at 0.682 ± 0.28.

In the case of QFPTCVHKPSCWDF, the amyloid nucleation score was 0.291 ± 0.5.

For CQAVRRILCYWTAYDIERAV, the amyloid nucleation score stood at 1.16 ± 0.22.

Substance NYMRVNWLLFSSSQPVICVG had an amyloid nucleation score of 0.107 ± 0.79.

Substance YMVMA had an amyloid nucleation score of -0.67 ± 1.1.

Turning to DLYMNEASTALGLGRGFLWG, the amyloid nucleation score was -0.553 ± 1.1.

With FPCAMYTEWHVAVTVSICYG, the amyloid nucleation score was -0.36 ± 0.76.

As to WDSRDLMC, the amyloid nucleation score turned out to be 0.344 ± 0.39.

In turn, VFWNIAFNSYMQRSCYIVVF registered an amyloid nucleation score of 2.12 ± 0.14.

Substance PILLMSTVTRRLVRCNVAFK yielded an amyloid nucleation score of 0.391 ± 0.51.

SSNHTPTVVMHDHIPVLNFR yielded an amyloid nucleation score of -0.628 ± 0.63.

Consider RYLETYHSHACVSFTERN, for which the amyloid nucleation score came to 0.606 ± 0.45.

LWRILVALFAISILRTLVMQ came in with an amyloid nucleation score of 1.63 ± 0.2.

Regarding FFSDVSLVQYHLTLRFLMAY, the amyloid nucleation score is -1.69 ± 0.62.

In turn, TDNMDEMDREYLSCHKFCFG registered an amyloid nucleation score of 3.69 ± 0.045.

On to VDIFMFKAAHIRAKGNVVGL, for which the amyloid nucleation score was -0.429 ± 0.45.

As to DGFRTYIVRWEATVANSLVV, the amyloid nucleation score was found to be 0.736 ± 0.52.

Turning to HTSMWFL, the amyloid nucleation score is -0.145 ± 1.1.

For the substance ANSYYIVYLGPHHAYFFILK, the amyloid nucleation score came to 3.75 ± 0.12.

HGGFGYR: the amyloid nucleation score was -0.336 ± 0.49.

As to FVFIYYIVLQHATANHSMQA, the amyloid nucleation score came out at 4.921 ± 0.044.

For WNLYSLSN, the amyloid nucleation score result is “inactive”.

TIENLNLFWF registered an amyloid nucleation score of 5.73 ± 0.06.

ESSYVRIQ yielded an amyloid nucleation score of 0.13 ± 0.4.

On to SSTPMCVPMYCS, for which the amyloid nucleation score entry was “inactive”.

Take YLTNLNNCADKSNCW: the amyloid nucleation score result is “inactive”.

In turn, FRCHYFNWNDFALAVSFSKE displayed an amyloid nucleation score of -0.33 ± 0.38.

The substance TECYLDVHLLHCRCALRSTP gave an amyloid nucleation score of 6.83 ± 0.069.

As for YPPWVSGVMIVMGHLRRCSA, the amyloid nucleation score was 1.93 ± 0.43.

The substance GVSVMKVLYLCTIDKALCFG displayed an amyloid nucleation score of 6.06 ± 0.068.

Turning to GQTIL, the amyloid nucleation score entry is “inactive”.

As for GIGSQMWFT, the amyloid nucleation score was 3.41 ± 0.053.

Regarding FRQFS, the amyloid nucleation score is 0.285 ± 1.

On to NLNYLVLTYDVSVWNVYVVL, for which the amyloid nucleation score was 8.17 ± 0.046.

YLLHNSLKFRVHHSL displayed an amyloid nucleation score of -0.68 ± 0.39.

Regarding MFVHLGGTWMQR, the amyloid nucleation score was found to be 5.135 ± 0.046.

For the substance RVFKDTRRIG, the amyloid nucleation score is -0.545 ± 1.

With NINLA, the amyloid nucleation score result was “inactive”.

IYCCISEWSNHTWV had an amyloid nucleation score of 6.175 ± 0.036.

Regarding DLRSWVFWNTSAYYIFSTDS, the amyloid nucleation score is -1.32 ± 0.36.

The substance MYSISVNMKNSFRNL returned an amyloid nucleation score of 0.566 ± 0.66.

Regarding SWSCRMEADSGFPAFIGAKK, the amyloid nucleation score was -0.47 ± 1.

As to SCSHYTVECKGAWGFCACGH, the amyloid nucleation score is 0.085 ± 0.36.

Turning to GHVQSWGCVVLHEFSSISPE, the amyloid nucleation score is 5.488 ± 0.05.

For FANGRFMNPSHGLYSLPLKR, the amyloid nucleation score worked out at 0.09 ± 0.51.

In the case of ELRISPPDNRLWDPQ, the amyloid nucleation score stood at 0.183 ± 1.

Regarding DSSSCYMYLCTGNYPDNFNF, the amyloid nucleation score was 4.5 ± 0.084.

In the case of TVLPAVCYGVLNSRFRVTME, the amyloid nucleation score result is “inactive”.

With SHISDVSKD, the amyloid nucleation score amounted to 0.679 ± 0.26.

As for EYVVSLHVFRLHIKLKIFRV, the amyloid nucleation score was -0.09 ± 0.65.

DVHHRIIMMLLGGFWYACGY displayed an amyloid nucleation score of -0.428 ± 0.27.

As for RLYNSQFIKYWNFSSRCCLL, the amyloid nucleation score came to 3.51 ± 0.098.

FAPRSKPLRSLFEGLLF registered an amyloid nucleation score of 0.495 ± 0.57.

NMTVFT registered an amyloid nucleation score of -0.202 ± 0.22.

Turning to MRTKGIRQADVFCESYRFNT, the amyloid nucleation score was -0.029 ± 0.65.

Take GVYPICV: the amyloid nucleation score is 0.416 ± 0.49.

FPTFVAMW registered an amyloid nucleation score of 0.35 ± 0.23.

With MGARSIRDRSSVGK, the amyloid nucleation score is -0.464 ± 1.1.

As to QGSKDRSYINKYRDRFCLTD, the amyloid nucleation score is -0.304 ± 1.1.

As to SVLLRDMGILYVMRNYYWPL, the amyloid nucleation score was -0.033 ± 0.76.

MQISKQTFPHNWVVYRSDYG: the amyloid nucleation score is -0.776 ± 1.1.

The substance DFFVLVGYGKVK gave an amyloid nucleation score of 0.595 ± 0.53.

For the substance LIQVAFQLYATVQVTVKTDV, the amyloid nucleation score stood at 2.09 ± 0.26.

Substance LCWFAMLEYVWDGHAVGDSI displayed an amyloid nucleation score of 4.06 ± 0.061.

In turn, ETMNA yielded an amyloid nucleation score of 1.38 ± 0.16.

The substance VALRWTIRQWFSDVYPWSWY gave an amyloid nucleation score of 0.802 ± 0.45.

In turn, YVSGGVKAFSFLSVCYLSPW returned an amyloid nucleation score of 7.586 ± 0.066.

For IRTLSFMIANSAL, the amyloid nucleation score was -1.16 ± 1.1.

In turn, FFSGGIILHYSYPTWEWYRS gave an amyloid nucleation score of 2.92 ± 0.098.

In turn, GTVTLV gave an amyloid nucleation score of 3.99 ± 0.11.

The substance WRLCVWPRCGTAKLS displayed an amyloid nucleation score of 0.24 ± 0.32.

With STVYIVCHGVILRVRMGPWL, the amyloid nucleation score was found to be 2.46 ± 0.12.

Regarding SYIICELNQLLGFKNWHKTC, the amyloid nucleation score came out at 2.83 ± 0.068.

For FKGSDHCSKCRQVGEFVFST, the amyloid nucleation score was -0.707 ± 1.1.

Consider SVKCWVALAPYLGDRKDPVW, for which the amyloid nucleation score was found to be 2.94 ± 0.15.

Substance CLSSSSVVALGNRLETWIYA gave an amyloid nucleation score of 2.73 ± 0.086.

DWFCVHKV had an amyloid nucleation score of 0.058 ± 1.

Substance VSSYCIRML had an amyloid nucleation score of 0.11 ± 0.76.

The substance VRVGVWSMTFG registered an amyloid nucleation score of -0.52 ± 0.78.

The substance VVHSFEWNLRRLSTWWRWGF returned an amyloid nucleation score of 0.217 ± 0.31.

DGSMFGPDVCFYIVSLILPF: the amyloid nucleation score worked out at 5.03 ± 0.07.
